Assay: label from the status in PepcDB records
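Further: failed if final PepcDB status was selected cloned or expressed and not failed if soluble or beyond.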

SFRTTKEEVVEKAKAFISAHYTEELNLSVIASQLYVNPFYLRRIFKEETELSPSQYLLKKRIEAALALLVNQEETITDIAFKVGFKSPAHFSTVFRHMIGLPPQKYRES
protein production: failed

MNKAITVIVWLLVSLCVLAIITMPVSLQTHLVATAISLILLATIKSFNGQGAWRLVALGFGTAIVLRYVYWRTTSTLPPVNQLENFIPGFLLYLAEMYSVVMLGLSLVIVSMPLPSRKTRPGSPDYRPTVDVFVPSYNEDAELLANTLAAAKNMDYPADRFTVWLLDDGGSVQKRNAANIVEAQAAQRRHEELKKLCEDLDVRYLTRERNVHAKAGNLNNGLAHSTGELVTVFDADHAPARDFLLETVGYFDEDPRLFLVQTPHFFVNPDPIERNLRTFETMPSENEMFYGIIQRGLDKWNGAFFCGSAAVLRREALQDSDGFSGVSITEDCETALALHSRGWNSVYVDKPLIAGLQPATFASFIGQRSRWAQGMMQILIFRQPLFKRGLSFTQRLCYMSSTLFWLFPFPRTIFLFAPLFYLFFDLQIFVASGGEFLAYTAAYMLVNLMMQNYLYGSFRWPWISELYEYVQTVHLLPAVVSVIFNPGKPTFKVTAKDESIAEARLSEISRPFFVIFALLLVAMAFAVWRIYSEPYKADVTLVVGGWNLLNLIFAGCALGVVSERGDKSASRRITVKRRCEVQLGGSDTWVPASIDNVSVHGLLINIFDSATNIEKGATAIVKVKPHSEGVPETMPLNVVRTVRGEGFVSIGCTFSPQRAVDHRLIADLIFANSEQWSEFQRVRRKNPGLIRGTAIFLAIALFQTQRGLYYLVRARRPAPKSAKPVGAVK
protein production: failed

MSSFRSAWAGAPAGIAVARTGQSVPLLNAAAALAVAMAVGGWLSGARHASAIDATQIESWRAMVAQAMEPQALRQLRQLARGGSTPARTALGEALLDSRDASLRHEGVRWLEAAAQPADGAPGDARAQLALGKALLLGTGGVARDYPRALHLLRQAADRGDAAAAYYLGLMYRSGYGTAANTALAAHWFDGAARHGIPAAMFMLANAYRDGDGVPRDEARALALYEQAAEHELPEAVQALAMAYQNGELGLARDDAAFRKQWLETAHALKHPALTP
protein production: failed

MPHKLLPWLAIASAMSAFTLQAQPMPDTELLMGSYTQGKSEGIYRFGFNSQTGLIDAKPLQVIKSDNPSWLTLSKDQRHLFAVNENGPGQKDVVGKVSSFAIDPKTRQITPINQVQSRGEEPTHSSLSYDGRYLFVANYAVNPDPGGALTVVPVGKDGTLSEAVQVLPLGPGSKVNSERQLSSHVHLAVPTPDNKYVVSADLGADKLFVYRYDANQAKPLQPAKVPTVQLPGGSGPRHTLFSADGKHAWLVLEMTAQVAVFDYHDGGFKQTQLVDMKNKGVEEKNGGGALHTSPDGKFLYVTNRGDANQVVVFRIDQASGKLEEIQRRSLEGKEPREFAFDPTGKFMLFANQKSNQIVTVRRDPQSGMIGDTVQKFDADSPSYLRFLTEK
protein production: failed

MFYEKIQTPAYILEEDKLRKNCELLASVGEKSGAKVLLALKGFAFSGAMKIVGEYLKGCTCSGLWEAKFAKEYMDKEIHTYSPAFKEDEIGEIASLSHHIVFNSLAQFHKFQAKTQKNSLGLRCNVEFSLAPKELYNPCGRYSRLGIRAKDFENVDLSTIEGLHFHALCEESAGALEAVLKVFEEKFGKWIGQMKWVNFGGGHHITKKGYDVEKLIALCKNFSDKYGVQVYLEPGEAVGWQTGNLVASVVDIIENEKQIAILDTSSEAHMPDTIIMPYTSEVLNARILATRENEKISDLKESEFSYLLTGNTCLAGDVMGEYAFDKKLKIGDKIVFLDQIHYTIVKNTTFNGIRLPNLMLLNAKNELQMIREFSYKDYSLRN
protein production: failed

MGSSHHHHHHSSGENLYFQGHMDVLASGEKSRMLFERTKELFPGGVNSPVRAAVKPYPFYVKRGEGAYLYTVDGARIVDLVLAYGPLILGHKHPRVLEAVEEALARGWLYGAPGEAEVLLAEKILGYVKRGGMIRFVNSGTEATMTAIRLARGYTGRDLILKFDGCYHGSHDAVLVAAGSAAAHYGVPTSAGVPEAVARLTLVTPYNDVEALERVFAEYGDRIAGVIVEPVIANAGVIPPRREFLAALQRLSRESGALLILDEVVTGFRLGLEGAQGYFNIEGDIIVLGKIIGGGFPVGAVAGSREVMSLLTPQGKVFNAGTFNAHPITMAAGLATLKALEEEPVYSVSREAAKALEEAASEVLDRTGLPYTINRVESMMQLFIGVEEVSNAAQARKADKKFYVKLHEEMLRRGVFIAPSNLEAVFTGLPHQGEALEIAVEGLRSSLKTVLGS
protein production: not failed

MIHGFLCSTKSALPHPLDDPAFVTASACRLASRPFRFMPQSSRRQNRSGTLVFANWNYVLLLIGVALIVVGFTAMYLEGQYLGFISLYVSPVLIIGGYAEIIYALLWAPDEQSAAEEQ
protein production: failed

MSLKVHHIGYAVKNIDSALKKFKRLGYVEESEVVRDEVRKVYIQFVINGGYRVELVAPDGEDSPINKTIKKGSTPYHICYEVEDIQKSIEEMSQIGYTLFKKAEIAPAIDNRKVAFLFSTDIGLIELLEKEGHHHHHH
protein production: not failed

HALQAGRLGSTVFVANLDYKVGWKKLKEVFSMAGVVVRADILEDKDGKSRGIGTVTFEQSIEAVQAISMFNGQLLFDRPMHVKMDERALPKGDFFPPERPQQ
protein production: failed

MYLLNDKVAHELKKPFGKVYKELPSIEGKVVSIGDVTTKHLLSNGIIPDLSILDFKTKRNIPVDIPHKFKTIFEVENPQGCISDEAIERIKYLSTIHDRDMALIIKGEEDLLTIPVIKYFPEDTSVIYGQPDEGMVLLKITDELKQKIEKLLKEMEER
protein production: failed

MNEADMLFSVTVPGSTANLGPGFDSVGMALSRYLKLTVFESDKWSFEAETETVAGIPAGTDNLIYQVAKRTADLYGKEMPPVHVKVWSDIPLARGLGSSAAAIVAAIELADELCGLKLSEADKLHLASLEEGHPDNAGASLVGGLVIGLHEDDETQMIRVPNADIDVVVVIPFYEVLTRDARDVLPKEFPYADAVKASAVSNILIAAIMSKDWPLVGKIMKKDMFHQPYRAMLVPELSKVEHVAEMKGAYGTALSGAGPTILVMTEKGKGEELKEQLALHFPHCEVDALTVPKEGSIIERNPLYQVKSV
protein production: not failed

MRLTDQKRESIVQAAIAEFGDRGFEITSMDRIAARAEVSKRTVYNHFPSKEELFAEMLQRLWNCAPPQSEVVYRPLVSLREQLLELLWGKMRNLTDSSFLDLARVVVGATIHSPERAQVWLARINEREETFSAWIRAAQKDGRLKPVDPGFAATQMHALLKSFAFWPQVTFNAALLTPQEQSNVVESALNMFLGWYEIPG
protein production: not failed

VTRRIAICAPSTPFTREDSARVIALAAAEFPDLSLSFHEQCFASEGHFAGSDALRLSAFLECANDDAFEAVWFVRGGYGANRIAEDALARLGRAASAKQYLGYSDAGTLLAALYAHRIGRSVHAPMPVDIRRPEGESAVRRTLGWLAGAREGLEPTLGAGAPAVAFNLMTLAMLCGTRLLPDLSGHVVMIEEVAEHHYAVDRLLFHVTSCLADAGIAGLRLGRVSDVPENDRPFGCSVEEMARHWCHRAGIAFLGTADIGHDVDNRIVPFGLA
protein production: not failed

MRHITTHDAPATGLRSIADTSWHVRGACHGMDIEDADAVFFPGPRDHEEIAEAKELCGWCPVRRACLDFALENVLKEGVWGGLTEAERRPL
protein production: failed

MGHHHHHHSHPQLLHFVDQYREQLIARVTSVEVVLDKLHGQVLSQEQYERVLAENTRPSQMRKLFSLSQSWDRKCKDGLYQALKETHPHLIMELWEKGSKKGLLPLSS
protein production: not failed

GVAVEVRGLPPAVPDELLTLYFENRRRSGGGPVLSWQRLGCGGVLTFREPADAERVLAQADHELHGAQLSLRPAPPRAPARLLLQGLPPGT
protein production: not failed

MNTTVEKQQIITSNTEQWKMYSKLEGKEYQIHISKPKQPAPDSGYPVIYVLDGNAFFQTFHEAVKIQSVRAEKTGVSPAIIVGVGYPIEGAFSGEERCYDFTPSVISKDAPLKPDGKPWPKTGGAHNFFTFIEEELKPQIEKNFEIDKGKQTLFGHSLGGLFALHILFTNLNAFQNYFISSPSIWWNNKSVLEKEENLIIELNNAKFETGVFLTVGSLEREHMVVGANELSERLLQVNHDKLKFKFYEAEGENHASVVPTSLSKGLRFISYV
protein production: not failed

MNSPKNSLYEEKSGHYYNAVNPNLLKHIKKEWKEVLDIGCSSGALGAAIKENGTRVSGIEAFPEAAEQAKEKLDHVVLGDIETMDMPYEEEQFDCVIFGDVLEHLFDPWAVIEKVKPYIKQNGVILASIPNVSHISVLAPLLAGNWTYTEYGLLDKTHIRFFTFNEMLRMFLKAGYSISKVDRVYVDHKMYEPLIEELYGICKKYRLGSGFMAETVVFQYIIEAEKSQL
protein production: not failed

MLEKVFQEITNKRKFFASSSTGEQFENQFRNELKKHFSEINGDLTEELSHIEEKPNKEIKTTFNQLKKQVLEKNHPHTLKNPFSNLTSHFLYQPFGSQNYPDFLVFIFDYVVGIEIKFSKNDKGEKNLQTSRPMWNSNLPKPNAIYVYGVANANITFFKGSDILSYETREVLLKYFDILDKDERSLKNALKDLENPFGFAPYIRKAYEHKRNFLTTTRLKASFRPTTF
protein production: failed

MSLTARSVVLSVLLGAHPAWATASELIQLTADFGIKETTLRVALTRMVGAGDLVRSADGYRLSDRLLARQRRQDEAMRPRTRAWHGNWHMLIVTSIGTDARTRAALRTCMHHKRFGELREGVWMRPDNLDLDLESDVAARVRMLTARDEAPADLAGQLWDLSGWTEAGHRLLGDMAAATDMPGRFVVAAAMVRHLLTDPMLPAELLPADWPGAGLRAAYHDFATAMAKRRDATQLLEVTEGHHHHHH
protein production: not failed

MRSLTHIAKIEPPPVRRVTYVKHYSIQPANLEFNAEGTPVSRDFDDVYFSNDNGLEETRYVFLGGNQLEVRFPEHPHPLFVVAESGFGTGLNFLTLWQAFDQFREAHPQAQLQRLHFISFEKFPLTRADLALAHQHWPELAPWAEQLQAQWPMPLPGCHRLLLDEGRVTLDLWFGDINELTSQLDDSLNQKVDAWFLDGFAPAKNPDMWTQNLFNAMARLARPGGTLATFTSAGFVRRGLQDAGFTMQKRKGFGRKREMLCGVMEQTLPLPCSAPWFNRTGSSKREAAIIGGGIASALLSLALLRRGWQVTLYCADEAPALGASGNRQGALYPLLSKHDEALNRFFSNAFTFARRFYDQLPVKFDHDWCGVTQLGWDEKSQHKIAQMLSMDLPAELAVAVEANAVEQITGVATNCSGITYPQGGWLCPAELTRNVLELAQQQGLQIYYQYQLQNLSRKDDCWLLNFAGDQQATHSVVVLANGHQISRFSQTSTLPVYSVAGQVSHIPTTPELAELKQVLCYDGYLTPQNPANQHHCIGASYHRGSEDTAYSEDDQQQNRQRLIDCFPQAQWAKEVDVSDKEARCGVRCATRDHLPMVGNVPDYEATLVEYASLAEQKDEAVSAPVFDDLFMFAALGSRGLCSAPLCAEILAAQMSDEPIPMDASTLAALNPNRLWVRKLLKGKAVKAG
protein production: failed

MESVYLFSSGTLKRKANTICLETESGRKYIPVENVMDIKVFGEVDLNKRFLEFLSQKRIPIHFFNREGYYVGTFYPREYLNSGFLILKQAEHYINQEKRMLIAREIVSRSFQNMVDFLKKRKVRADSLTRYKKKAEEASNVSELMGIEGNAREEYYSMIDSLVSDERFRIEKRTRRPPKNFANTLISFGNSLLYTTVLSLIYQTHLDPRIGYLHETNFRRFSLNLDIAELFKPAVVDRLFLNLVNTRQINEKHFDEISEGLMLNDEGKSLFVKNYEQALRETVFHKKLNRYVSMRSLIKMELHKLEKHLIGEQVFGSEE
protein production: not failed

MEVCSTVTTKKLSSLAKLILFTIQKVSDASRHKLLTTLDPHLLAKRGKILRKSLNEAVSTSHSRITCRPSDHQDVRSSFISPVPLQLEYEFSCSSTPPRRSYATTVSKGRRSNGSHNRPLINKRQRQAYIRYNTLPKVRDSIWDRHVAAAVFPDVASSTGTMESCHVDRAAEEFIQSFYRQLRLQKWMMAQEV
protein production: failed
